Reference: paper PMC7935256 (PLoS Pathogens, 2021)

Tests used:
Assay in all cases: BLI
Details in all cases: both partners purified
[1] = molecular target: T1, DENV1 WestPac74 strain recombinant E protein ectodomain (residues 1-394) (dengue virus serotype 1, strain WestPac …)
T1 construct: also called DENV1 WestPac 74 rE protein; Western Pacific 1974

[2] = molecular target: DENV2 NGC strain recombinant E protein ectodomain (residues 1-394) (dengue virus serotype 2, strain NGC)
[3] = molecular target: T2, DENV2 PVP94/07 strain recombinant E protein ectodomain (residues 1-394) (dengue virus serotype 2, strain PVP94/07)
T2 construct: also called DENV2 PVP94/07 rE protein

B1: human monoclonal antibody (HMAb) 1C19, IgG (antibody, V domains shown)
VH: QVQLVESGGGVVQPGRSLRLSCAASGFIFSNYGMHWVRQAPGKGLEWVAVISYDGSDKRYADSVRGRFTISRDNSKNTLFLQVTSLRAEDTAVYYCAKELSGYDPGFEYWGQGTPVTVSS
VL: DIQMTQSPSTLSASVGDRVTITCRASQSINTWLAWYQQKPGKAPKLLIYKASSLESGVPSRFSGSGSGTEFTLTISSLQPDDFATYYCQQYESYATFGQGTKVDIK
notes: also called IgG 1C19
- Kd [1]: 0.844 nM
- Kd [2]: 4.55 nM
- Kd [3]: 19 nM
